This is an account of results in patent US20180318438A1, “ANTIBODY DRUG CONJUGATES OF KINESIN SPINDEL PROTEIN (KSP) INHIBITORS WITH ANTI-TWEAKR-ANTIBODIES” (Bayer Pharma Aktiengesellschaft, priority 2015, published 2018).

One data set relates to Caco-2 cells. Kind of data set: Cell permeability, flux assay using Caco-2 cells. Conditions: basal to apical, 2 h. In general terms: Caco-2 cells form a polarised layer with tight junctions and transporters.
Data set [1] has as its system NCI-H292: human mucoepidermoid lung carcinoma cells. Kind of data set: Cytotoxicity, MTT assay. It is filed as cell-based. Particulars: NCI-H292, 96 h, metabolites.
Description: The cells were cultivated according to the standard method using the growth media listed under C-1. […] The cells were then incubated in an incubator at 37° C. and 5% carbon dioxide. […] To this end, the MTT reagent was incubated with the cells for 4 h, followed by lysis of the cells overnight by addition of the detergent. […] The measured data were used to calculate the IC50 of the growth inhibition using the DRC (dose response curve). The proliferation of cells which were not treated with test substance but were otherwise identically treated was defined as the 100% figure.
The subject of data set [2] is KPL4: human breast cancer cell line. Kind of data set: Cytotoxicity, MTT assay. In kind it is cell-based. Particulars: KPL4, 96 h, metabolites, KPL4 cells. How it is done: The cells were cultivated according to the standard method using the growth media listed under C-1. The test is carried out by detaching the cells with a solution of Accutase in PBS (Biochrom AG #L2143), pelleting, resuspending in culture medium, counting and sowing into a 96-well culture plate with white bottom (Costar #3610) (NCI H292: 2500 cells/well, KPL-4: 1200 cells/well, SK-HEP-1: 1500 cells/well in a total volume of 100 μl). The cells were then incubated in an incubator at 37° C. and 5% carbon dioxide. After 48 h, the medium was replaced. The metabolites in 10 μl of culture medium in concentrations from 10^−5M to 10^−13M were then pipetted to the cells (in triplicate), and the assay was then incubated in an incubator at 37° C. and 5% carbon dioxide. […] To this end, the MTT reagent was incubated with the cells for 4 h, followed by lysis of the cells overnight by addition of the detergent. The dye formed was detected at 570 nm (Infinite M1000 pro, Tec an). The measured data were used to calculate the IC50 of the growth inhibition using the DRC (dose response curve). The proliferation of cells which were not treated with test substance but were otherwise identically treated was defined as the 100% figure.
A general note: Tetrazolium assays rely on reduction of a dye to a coloured formazan, in cell work by metabolically active cells.

The target of data set [3] is T1, TWEAKR on human cells (NCI-H292, 786-O, A498, SK-HEP-1, HEK293) (human, UniProt Q9NP84 28-129).
T1 sequence: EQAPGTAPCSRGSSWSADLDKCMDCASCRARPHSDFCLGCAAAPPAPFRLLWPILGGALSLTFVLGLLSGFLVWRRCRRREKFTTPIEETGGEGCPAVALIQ
Kind of data set: cell-based or functional assay.

The target of data set [4] is T1, TWEAKR on human cells (NCI-H292, 786-O, …). Kind of data set: flow cytometry on NCI-H292 cells, dose curve from 10 ug/ml in 1:5 steps, anti-kappa-FITC secondary.
For data set [5] the target is unchanged. Kind of data set: flow cytometry on SK-HEP-1 cells, dose curve from 10 ug/ml in 1:5 steps, anti-kappa-FITC secondary.
For data set [6], the target named is T2, TPP-2305, hTNFRSF12 amino acids 28-80 (extracellular domain of TWEAKR) (human, UniProt Q9NP84 28-80).
T2 construct: Bought recombinant antigen (Fitzgerald 30R-AT080); also called TWEAKR extracellular domain; 30R-AT080 (Fitzgerald)
T2 sequence: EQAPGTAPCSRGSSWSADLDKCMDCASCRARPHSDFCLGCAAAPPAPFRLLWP
Kind of data set: SPR (Biacore T200), antibody captured by anti-human Fc on CM5, TWEAKR extracellular domain 3.9-500 nM as analyte, 25 C; monovalent KD. In general terms: SPR reads the build-up and loss of mass on a sensor chip optically.

The target in data set [7] is T2, TPP-2305, hTNFRSF12 amino acids 28-80 …. Kind of data set: SPR (Biacore T200), antibody captured by anti-human Fc on CM5, TWEAKR extracellular domain 3.9-500 nM as analyte, 25 C.

With `CC(C)(C)[C@H](c1cc(-c2cc(F)ccc2F)cn1Cc1ccccc1)N(CC[C@H](N)C(=O)N[C@H](CCC(=O)O)C(=O)O)C(=O)CO.O=C(O)C(F)(F)F` [Example M25, N-{(2S)-2-Amino-4-[{(1R)-1-[1-benzyl-4-(2,5-difluorophenyl)-1H-pyrrol-2-yl]-2,2-dimethylpropyl}(glycoloyl)amino]butanoyl}-L-glutamic acid/trifluoroacetic acid (1:1)], in the data set on Caco-2 cells, the “Papp (B-A)” value is 0.81 ×10⁻⁶ cm/s.

In the case of `CC(C)(C)[C@H](c1cc(-c2cc(F)ccc2F)cn1Cc1ccccc1)N(CC[C@H](N)C(=O)NCCNC(=O)CNC(=O)CC(SC[C@H](N)C(=O)O)C(=O)O)C(=O)CO.O=C(O)C(F)(F)F` (stereo partly drawn) [Example M26, 4-[(2-{[2-({(2S)-2-Amino-4-[{(1R)-1-[1-benzyl-4-(2,5-difluorophenyl)-1H-pyrrol-2-yl]-2,2-dimethylpropyl}(glycoloyl)amino]butanoyl}amino)ethyl]amino}-2-oxoethyl)amino]-2-{[(2R)-2-amino-2-carboxyethyl]sulphanyl}-4-oxobutanoic acid/trifluoro acetic acid (1:1)], the “Papp (B-A)” value with Caco-2 cells worked out at 1.3 ×10⁻⁶ cm/s.

Consider `CC(C)(C)[C@H](c1cc(-c2cc(F)ccc2F)cn1Cc1ccccc1)N(CC[C@H](N)C(=O)NCCNC(=O)CNC(=O)CC(SC[C@H](N)C(=O)O)C(=O)O)C(=O)CO` (stereo partly drawn) [Example M13, 4-[(2-{[2-({(2S)-2-Amino-4-[{(1R)-1-[1-benzyl-4-(2,5-difluorophenyl)-1H-pyrrol-2-yl]-2,2-dimethylpropyl}(glycoloyl)amino]butanoyl}amino)ethyl]amino}-2-oxoethyl)amino]-2-{[(2R)-2-amino-2-carboxyethyl]sulphanyl}-4-oxobutanoic acid/trifluoroacetic acid (1:1)], for which the IC50 in data set [1] came to 152000 pM; in data set [2] it was 169000 pM.

B1: TPP-7007 (antibody, human IgG1, kappa, V domains shown)
VH: QVQLVQSGAEVKKPGASVKVSCKASGYTFTDFIIAWVKQAPGQGLEWIGEIYPGTGRTYYSEKFRGKATLTADTSTSTAYMELSSLRSEDTAVYFCARRTIYYDYDGDYWGQGTLVTVSS
VL: DIVMTQSPLSLPVTPGEPASISCRSSKSLLHSNGITYLYWYLQKPGQSPQLLIYQMSNLASGVPDRFSGSGSGTDFTLKISRVEAEDVGVYYCAHNLELPWTFGQGTKVEIKR
notes: also called anti-TWEAKR AK1D; AK1D
Regarding B1, the “Agonistic activity [%] of the TWEAK-ind. agonism (NF-kappaB reporter gene assay, HEK293)” value (“Agonistic activity [%]” below) in data set [3] is 4%. Besides, the values for the concentration giving a half-maximal response (EC50) in data set [4] and in data set [5] were 800 pM and 900 pM, respectively. Also, the affinity in data set [6], expressed as Kd, was 1400 pM.

B2: TPP-7075 (antibody, human IgG1, kappa, V domains shown)
VH: QVQLVQSGAEVKKPGASVKVSCKASGYTFTDFIIAWVKQAPGQGLEWIGEIYPGTGRTYYSEKFRGKATLTADTSTSTAYMELSSLRSEDTAVYFCARRTIYYDYDGDYWGQGTLVTVSS
VL: DIVMTQSPLSLPVTPGEPASISCRSSKSLLHSSGITYLYWYLQKPGQSPQLLIYQMSNLASGVPDRFSGSGSGTDFTLKISRVEAEDVGVYYCAHNLELPWTFGQGTKVEIKR
Regarding B2, in data set [3], the “Agonistic activity [%]” value is 15% and the “Antagonistic activity IC50 [M] (NF-kappaB reporter gene assay in the presence of Tweak 200 ng/ml)” value worked out at 2.4e-08 M. The molecule also gave an EC50 in data set [4] of 8900 pM. The molecule further gave a Kd in data set [6] of 6000 pM.

B3: TPP-7005 (antibody, human IgG1, kappa, V domains shown)
VH: QVQLVQSGAEVKKPGASVKISCKVSGYTFTDFIIAWVKQAPGKGLEWIGEIYPGTGRTYYSEKFRGKATLTADKSTSTAYMELSSLRSEDTAVYYCARRTIYYDYDGDYWGQGTTVTVSS
VL: DIVMTQSPLSLPVTPGEPASISCRSSKSLLHSNGITYLYWYLQKPGQSPQLLIYQMSNLASGVPDRFSSSGSGTDFTLKISRVEAEDVGVYYCAHNLELPWTFGGGTKVEIKR
notes: also called anti-TWEAKR AK1B; AK1B
Take B3: in data set [3], the “Agonistic activity [%]” value was 0.1% and the “Antagonistic activity IC50 [M] (NF-kappaB reporter gene assay in the presence of Tweak 200 ng/ml)” value is 2e-11 M. In data set [4], this molecule returned a half-maximal effective concentration (EC50) of 500 pM. The same molecule gave a 50% effective concentration (EC50) in data set [5] of 540 pM. Moreover, in data set [7], the off-rate constant (koff) came to 0.0018 s⁻¹ and the on-rate (kon) was 6.8e+06 M⁻¹ s⁻¹. The affinity in data set [6], expressed as Kd, was 260 pM.

B4: ITEM-4 (antibody, V domains shown)
VH: QVQLQQSGPELVKPGASVKMSCKASGYTFTDFIIAWVKQRTGQGLEWIGEIYPGTGRTYYSEKFRGKATLTADKSSNTAYMQLSSLTSVDSAVYFCARRTIYYDYDGDYWGQGTTLTVSS
VL: DIVMTQAAFSNPVTLGTSASISCRSSKSLLHSNGITYLYWYLQKPGQSPQLLIYQMSNLASGVPDRFSSSGSGTDFTLRISRVEAEDVGVYYCAHNLELPWTFGGGTKLELK
notes: Murine IgG2b, bought (eBioscience 13-9018); also called anti-TWEAKR AK1A; AK1A
For the molecule B4, in data set [3], the “Agonistic activity [%]” value is 14%. This molecule also showed a Kd in data set [6] of 700 pM.

B5: TPP-7006 (antibody, human IgG1, kappa, V domains shown)
VH: QVQLQQSGPELVKPGASVKMSCKASGYTFTDFIIAWVKQRTGQGLEWIGEIYPGTGRTYYSEKFRGKATLTADKSSNTAYMQLSSLTSVDSAVYFCARRTIYYDYDGDYWGQGTTLTVSS
VL: DIVMTQAAFSNPVTLGTSASISCRSSKSLLHSNGITYLYWYLQKPGQSPQLLIYQMSNLASGVPDRFSSSGSGTDFTLRISRVEAEDVGVYYCAHNLELPWTFGGGTKLELKR
notes: also called anti-TWEAKR AK1C; AK1C
Regarding B5, the “Agonistic activity [%]” value in data set [3] was determined as 3%. The EC50 was determined as 540 pM in data set [4] and 830 pM in data set [5]. Besides, the dissociation constant Kd in data set [6] was 330 pM.

In general, IC50 refers to the midpoint of a concentration-inhibition curve. For orientation: EC50 means the concentration giving half of the maximal effect. The Kd is the equilibrium constant for the complex coming apart. Low readings indicate higher affinity, high ones lower affinity. The koff is a measure of how fast the partners let go of each other. High values mean fast dissociation, low ones slow dissociation. For orientation: kon means the second-order rate constant of association. A high value points to fast association.
